Assays:
AURANOFIN [1] = settings: Paramecium tetraurelia; 3 uM
Description: Michaelis-Menten constant determined against Paramecium tetraurelia cathepsin L at 3 uM

AURANOFIN [2] = settings: Paramecium tetraurelia; 30 uM
Description: Michaelis-Menten constant determined against Paramecium tetraurelia cathepsin L at 30 uM

AURANOFIN [3] = settings: Paramecium tetraurelia; 300 nM
Description: Michaelis-Menten constant determined against Paramecium tetraurelia cathepsin L at 300 nM

AURANOFIN [4] = settings: Paramecium tetraurelia; 300 uM
Description: Michaelis-Menten constant determined against Paramecium tetraurelia cathepsin L at 300 uM

B1: Putative cathepsin L 3 (Paramecium tetraurelia), Q94715 (protein)
chain: MKQFLTAAIVTLLMTAGYYHLQEDDTNDFERWALKNNKFYTESEKLYRMEIYNSNKRMIEEHNQREDVTYQMGENQFMTLSHEEFVDLYLQKSDSSVNIMGASLPEVQLEGLGAVDWRNYTTVKEQGQCASGWAFSVSNSLEAWYAIRGFQKINASTQQIVDCDYNNTGCSGGYNAYAMEYVLRVGLVSSTNYPYVAKNQTCKQSRNGTYFINGYSFVGGSQSNLQYYLNNYPISVGVEASNWQFYRSGLFSNCSSNGTNHYALAVGFDSANNWIVQNSWGTQWGESGNIRLYPQNTCGILNYPYQVY
Protein B1 has a Km (AURANOFIN [1]) of 32 µM, a Km (AURANOFIN [2]) of 47 µM and a Km (AURANOFIN [3]) of 27 µM. For the same protein, the Km (AURANOFIN [4]) was 49 µM.

From ChEMBL document CHEMBL1137897, “Inhibition of lysosomal cysteine proteases by chrysotherapeutic compounds: a possible mechanism for the antiarthritic activity of Au(I)” (Bioorg Med Chem Lett, 2004)
